Assay results published in patent US20230203142.

Molecular target: human NDPK-A (nucleoside diphosphate kinase A), full-length recombinant
Sequence (chain, as listed by the source): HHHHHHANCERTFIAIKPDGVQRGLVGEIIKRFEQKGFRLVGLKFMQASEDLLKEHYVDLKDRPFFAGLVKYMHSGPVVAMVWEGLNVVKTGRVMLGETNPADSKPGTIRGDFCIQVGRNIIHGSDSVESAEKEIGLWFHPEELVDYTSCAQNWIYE

B1: human ADK (adenosine kinase), recombinant (protein)
chain: AAAEEEPKPKKLKVEAPQALRENILFGMGNPLLDISAVVDKDFLDKYSLKPNDQILAEDKHKELFDELVKKFKVEYHAGGSTQNSIKVAQWMIQQPHKAATFFGCIGIDKFGEILKRKAAEAHVDAHYYEQNEQPTGTCAACITGDNRSLIANLAAANCYKKEKHLDLEKNWMLVEKARVCYIAGFFLTVSPESVLKVAHHASENNRIFTLNLSAPFISQFYKESLMKVMPYVDILFGNETEAATFAREQGFETKDIKEIAKKTQALPKMNSKRQRIVIFTQGRDDTIMATESEVTAFAVLDQDQKEIIDTNGAGDAFVGGFLSQLVSDKPLTECIRAGHYAASIIIRRTGCTFPEKPDFH
In the case of B1, the “activity of recombinant NDPK to generate ADP (ADP-Glo)” value is reported as “addition of recombinant ADK significantly reduced the activity of NDPK to generate ADP”.
